The source of these data is patent US20260201045A1 (Regeneron, published 2026).

Assay [1] addresses T1, human CNTFR extracellular domain (Q23-V105)/mCNTFR (G106-S342) expressed with a C-terminal … (human/mouse chimera, UniProt P26992 23-342).
T1 construct: Human/mouse chimeric CNTFR domain protein; also called hCNTFR (Q23-V105)/mCNTFR (G106-S342).mmh; hCNTFR (Q23-V105)_mCNTFR (G106-S342).mmh
T1 chain: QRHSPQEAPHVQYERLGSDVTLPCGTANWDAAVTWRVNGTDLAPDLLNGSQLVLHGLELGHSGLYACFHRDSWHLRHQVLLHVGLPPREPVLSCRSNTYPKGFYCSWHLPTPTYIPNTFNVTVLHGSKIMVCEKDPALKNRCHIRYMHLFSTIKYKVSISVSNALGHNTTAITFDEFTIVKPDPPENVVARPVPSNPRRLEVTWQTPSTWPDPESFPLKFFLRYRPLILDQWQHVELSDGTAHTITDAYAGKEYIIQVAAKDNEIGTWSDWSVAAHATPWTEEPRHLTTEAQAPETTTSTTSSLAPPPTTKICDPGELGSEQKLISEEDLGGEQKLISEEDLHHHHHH
Nature of the assay: SPR Biacore S200, antigen captured by anti-myc, mAb injected, 25 C. In general terms: Surface plasmon resonance follows binding to a sensor surface in real time, without labels.

Assay [2] deals with T2, human CNTFR extracellular domain expressed with a C-terminal myc-myc-hexahistidine tag (human, UniProt P26992 23-342).
T2 construct: The entry holds the tag as well; also called hCNTFR-mmh; hCNTFR.mmh
Nature of the assay: SPR Biacore S200, antigen captured by anti-myc, 100 nM mAb injected, 25 C.

In assay [3] the target is T1, human CNTFR extracellular domain …. The assay is described as above.
The target of assay [4] is T3, human CNTFR extracellular domain (Q23-D205)/mCNTFR (P206-S342) expressed with a C-terminal … (human/mouse chimera, UniProt P26992 23-342).
T3 construct: Human/mouse chimeric CNTFR domain protein; also called hCNTFR (Q23-D205)/mCNTFR (P206-S342).mmh; hCNTFR (Q23-D205)_mCNTFR(P206-S342).mmh
The assay is described as above.

The target in assay [5] is T4, human CNTFR extracellular domain expressed with a C-terminal mouse IgG2a Fc tag (human).
T4 construct: also called hCNTFR-mFc; dimeric hCNTFR-mFc
T4 chain: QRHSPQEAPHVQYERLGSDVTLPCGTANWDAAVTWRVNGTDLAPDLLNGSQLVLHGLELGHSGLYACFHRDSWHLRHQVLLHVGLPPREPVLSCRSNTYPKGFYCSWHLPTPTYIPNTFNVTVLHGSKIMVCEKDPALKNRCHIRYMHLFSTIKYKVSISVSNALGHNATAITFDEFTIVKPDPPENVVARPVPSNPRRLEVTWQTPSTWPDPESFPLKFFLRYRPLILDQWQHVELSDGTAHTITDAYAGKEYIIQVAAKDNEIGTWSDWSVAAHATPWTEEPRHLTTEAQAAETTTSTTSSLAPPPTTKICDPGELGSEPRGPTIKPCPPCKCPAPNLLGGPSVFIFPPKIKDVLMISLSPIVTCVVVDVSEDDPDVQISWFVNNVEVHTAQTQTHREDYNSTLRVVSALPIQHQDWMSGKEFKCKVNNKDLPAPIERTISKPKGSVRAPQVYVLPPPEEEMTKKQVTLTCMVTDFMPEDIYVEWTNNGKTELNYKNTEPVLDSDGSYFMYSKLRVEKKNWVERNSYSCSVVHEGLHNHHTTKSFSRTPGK
Nature of the assay: SPR Biacore 4000, mAb captured by anti-human Fc, antigen injected, 37 C. On the procedure: (§1) Equilibrium dissociation constants (KD) for CNTFR binding to purified anti-CNTFR monoclonal antibodies were determined using a real-time surface plasmon resonance (SPR) based Biacore 4000 biosensor. All binding studies were performed in 10 mM HEPES, 150 mM NaCl, 3 mM EDTA, and 0.05% v/v surfactant Tween-20, pH 7.4 (HBS-ET) running buffer at 25° C. and 37° C. The Biacore CM4 sensor surface was first derivatized by amine coupling with a monoclonal mouse anti-human Fc antibody (REGN2567) to capture anti-CNTFR monoclonal antibodies. Different concentrations of CNTFR reagents, human CNTFR extracellular domain expressed with a C-terminal myc-myc-hexahistidine tag (hCNTFR-mmh; SEQ ID NO:42), monkey CNTFR extracellular domain expressed with a C-terminal myc-myc-hexahistidine tag (mfCNTFR-mmh; SEQ ID NO:43), mouse CNTFR extracellular domain expressed with a C-terminal myc-myc-hexahistidine tag (mCNTFR-mmh; SEQ ID NO:44), and human CNTFR extracellular domain expressed with a C-terminal mouse IgG2a Fc tag (hCNTFR-mFc; SEQ ID NO: 45), at concentrations ranging from 6.25 nM to 100 nM in a series of 4-fold dilutions prepared in HBS-ET running buffer were injected at a flow rate of 30 μL/min for 2.5 minutes. The dissociation of different CNTFR reagents bound to anti-CNTFR monoclonal antibodies was monitored for 10 minutes in HBS-ET running buffer. At the end of each cycle, the anti-CNTFR monoclonal antibodies capture surface was regenerated using a 12 sec injection of 20 mM H3PO4. The association rate (ka) and dissociation rate (kd) were determined by fitting the real-time specific binding sensorgrams to a 1:1 binding model with mass transport limitation using Scrubber 2.0c curve-fitting software. Binding dissociation equilibrium constant (KD) and dissociative half-life (t½) were calculated from the kinetic rates as: […]

Assay [6] addresses T5, full length mouse CNTFR (mCNTFR, amino acids 1-372, UniProtKB/Swiss-Prot Accession #088507) (mouse, UniProt O88507 23-342).
T5 construct: whole, on cells; also called HEK293/mCNTFR
T5 sequence (looked up): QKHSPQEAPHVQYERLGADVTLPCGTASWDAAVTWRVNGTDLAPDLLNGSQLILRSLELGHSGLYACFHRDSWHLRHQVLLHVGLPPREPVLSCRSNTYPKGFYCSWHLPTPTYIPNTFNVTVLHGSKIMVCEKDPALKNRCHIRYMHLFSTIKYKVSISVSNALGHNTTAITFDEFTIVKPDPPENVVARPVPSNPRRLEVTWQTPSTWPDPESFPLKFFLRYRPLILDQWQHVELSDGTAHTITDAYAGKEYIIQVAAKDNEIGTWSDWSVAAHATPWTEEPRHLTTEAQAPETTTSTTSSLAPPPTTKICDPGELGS
As to the kind of experiment: flow cytometry on HEK293/mCNTFR cells. As to the method: (§2) To assess binding of the anti-CNTFR antibodies to CNTFR receptors expressed on the cell surface, each of the HEK293/CNTFR cells listed above or HEK293 parental cells were diluted to 5×10⁵ cells/well in 96-well v-bottom plates. […] Cells were fixed using BD CytoFix™ (Becton Dickinson, #554655), filtered, and then analyzed on IQuePlus® Flow Cytometer (Intellicyt®). Geometric Mean Fluorescent Intensity (MFI) values were calculated by Forecyt Software and plotted in GraphPad Prism using a 4-parameter logistic equation over the 8-point dose-response curve to obtain EC₅₀ values. […] The secondary only condition was excluded from the EC₅₀ calculation.

The target of assay [7] is T6, full length human CNTFR (hCNTFR, amino acids 1-372, UniProtKB/Swiss-Prot Accession #P26992) (human, UniProt P26992 23-342).
T6 construct: also called HEK293/hCNTFR; CNTFR endogenously expressed on IMR-32/STAT3-luc cells
T6 sequence: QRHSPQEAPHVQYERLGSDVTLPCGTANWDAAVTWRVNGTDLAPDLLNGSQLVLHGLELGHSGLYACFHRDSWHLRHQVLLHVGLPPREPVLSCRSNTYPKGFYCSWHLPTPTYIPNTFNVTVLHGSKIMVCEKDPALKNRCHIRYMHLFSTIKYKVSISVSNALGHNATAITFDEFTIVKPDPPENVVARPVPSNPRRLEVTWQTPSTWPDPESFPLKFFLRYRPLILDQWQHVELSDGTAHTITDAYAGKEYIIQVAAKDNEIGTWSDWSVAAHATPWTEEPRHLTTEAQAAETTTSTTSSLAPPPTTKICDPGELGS
As to the kind of experiment: flow cytometry on HEK293/hCNTFR cells. As to the method: as §2
(In flow cytometry, cells or beads pass a laser one at a time.)

The target in assay [8] is T4, human CNTFR extracellular domain …. As to the kind of experiment: SPR Biacore 4000, mAb captured by anti-human Fc, antigen injected, 25 C. On the procedure: as §1
The target in assay [9] is T7, mouse CNTFR extracellular domain expressed with a C-terminal myc-myc-hexahistidine tag (mouse, UniProt O88507 23-342).
T7 construct: The entry holds the tag as well; also called mCNTFR-mmh
The assay is described as above. On the procedure:
as §1

B1: mAb25311P2 (antibody, human IgG4 S228P, kappa, V domains shown)
VH: QVQLVESGGGVVQPGRSLRLSCVASGFTFSTSVMHWVRQAPGKGLEWVANIWYDGINKFYVDSVKGRFTISRDNSKNTLYLQMNSLRAEDTAVYYCAREFWSAFDLWGQGTMVTVSS
VL: not shown
Turning to B1, the binding result in [1] is “no binding (tested: 100 nM)”; in [6], “no binding (tested: 375 nM)”; in assay [9], “no binding (tested: 100 nM)”. Further, the figures for the “100 nM mAb Bound (RU)” value in assay [2], in [3] and in assay [4] were 80 RU, 1 RU and 89 RU, respectively. For the same molecule, the Kd amounted to 27.2 nM in [5] and 7.22 nM in assay [8]. The koff worked out at 0.000784 s⁻¹ in assay [5] and 0.000125 s⁻¹ in [8]. Also, the kon in assay [5] came to 28800 M⁻¹ s⁻¹; in assay [8], 17300 M⁻¹ s⁻¹. The values for the t½ in assay [5] and in assay [8] were 15 min and 93 min, respectively. Besides, the concentration for a half-maximal effect (EC50) in assay [7] is 4.33 nM. For the same molecule, in [7], the “Max. Fold Binding” value was 510 fold over secondary antibody alone.

Broadly, the Kd is the concentration at which binding is half-saturated. A low value points to tighter binding. The term koff denotes the first-order rate constant of dissociation. A higher koff goes with a short-lived complex. Usually kon stands for a measure of how fast the partners come together. One may read the t½ as the time in which the quantity being followed falls by half. A lower t½ goes with rapid decline. Usually EC50 stands for the concentration needed to bring the measured effect to its halfway point. Lower therefore signals greater potency.
